Experimental data from publication PMC9041927, “Aptamer based surface plasma resonance assay for direct detection of neuron specific enolase and progastrin-releasing peptide (31-98)†”.

Experiments:
[1] = target: T1, neuron specific enolase (NSE) (UniProt P09104 2-434); assay: SPR; 5 mM MgCl2; kon 1.21e4 (printed Ms-1), koff 1.004e-3 s-1; SPR (Biacore X100, SA chip); 1x PBS pH 7.5, 0.1% Tween 20, 5 mM MgCl2 (NSE) or 2 mM MgCl2 (ProGRP31-98); temperature not stated; details: protein: recombinant; chain copies: 2; label: 5' biotin-TEG
T1 sequence (P09104 2-434): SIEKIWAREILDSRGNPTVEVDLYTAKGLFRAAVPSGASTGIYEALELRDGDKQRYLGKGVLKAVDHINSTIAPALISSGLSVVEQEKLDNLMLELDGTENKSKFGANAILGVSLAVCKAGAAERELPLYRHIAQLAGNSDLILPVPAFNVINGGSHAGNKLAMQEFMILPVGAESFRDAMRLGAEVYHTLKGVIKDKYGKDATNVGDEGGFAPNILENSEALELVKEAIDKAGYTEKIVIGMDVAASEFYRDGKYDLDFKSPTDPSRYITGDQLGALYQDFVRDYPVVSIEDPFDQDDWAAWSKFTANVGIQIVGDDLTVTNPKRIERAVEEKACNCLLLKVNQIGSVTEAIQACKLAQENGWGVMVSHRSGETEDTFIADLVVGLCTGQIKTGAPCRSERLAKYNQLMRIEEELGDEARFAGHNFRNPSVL

[2] = target: T1, neuron specific enolase (NSE); assay: SPR; NSE 125 nM to 2 uM; SPR (Biacore X100, SA chip); 1x PBS pH 7.5, 0.1% Tween 20, 5 mM MgCl2 (NSE) or 2 mM MgCl2 (ProGRP31-98); temperature not stated; details: protein: recombinant; chain copies: 2; label: 5' biotin-TEG
[3] = target: T2, progastrin-releasing peptide (31-98) (ProGRP31-98) (UniProt P07492 54-121); assay: SPR; 2 mM MgCl2; kon 8.64e3 (printed Ms-1), koff 1.321e-3 s-1; SPR (Biacore X100, SA chip); 1x PBS pH 7.5, 0.1% Tween 20, 5 mM MgCl2 (NSE) or 2 mM MgCl2 (ProGRP31-98); temperature not stated; details: protein: commercial; label: 5' biotin-TEG
T2 sequence: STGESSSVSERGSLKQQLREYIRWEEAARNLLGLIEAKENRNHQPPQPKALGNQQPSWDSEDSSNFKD

**Q.** TCACACACGGACCTCTCCTACATTAATTGCGCATTTCGTT (ssDNA) [NSE-Apt5-5BioTEG] was tested. Which Kd [1] did it give?
**A.** ~83 nM

**Q.** Does TCAGGTGCAGTTCTCGACTCGGTCTTGATGTGGGT (ssDNA) [DNA control] bind [2]?
**A.** no binding

**Q.** For CATGCGGAGTAGATTCGAGCCCAGATAGTCCCTGGTTATTTCCTTAGG (ssDNA) [ProGRP-48-5BioTEG], which Kd [3] is on record?
**A.** 153 nM
